According to US20250340608A1 (PROTAGONIST THERAPEUTICS, published 2025):
Numbered stars: 1 amine (or outer) side, 2 acyl side, 3 side chain; on linkers, the order of the positions; unused ones are H or OH. Bridge positions count the residues as written; N and C are the ends. Square brackets hold non-standard residues; d marks the D form. Side chains are listed from the residue outwards. Ends that are not written are not given here. * marks the point of attachment. Ida = iminodiacetic acid, O=C(CN(CC(=O)[*:3])[*:1])[*:2]; Dip = N[C@H](C(=O)O)C(c1ccccc1)c1ccccc1; γGlu = O=C(O)[C@H](CCC(=O)[*:2])N[*:1]; Palmitoyl = CCCCCCCCCCCCCCCC(=O)*; β3hP = O=C(O)C[C@@H]1CCCN1; Isovaleryl = CC(C)CC(=O)*; dapa = not defined here

T1: human ferroportin (SLC40A1) fused in frame with GFP, stably expressed in HEK293 cells (human, UniProt Q9NP59 1-571)
T1 sequence (looked up): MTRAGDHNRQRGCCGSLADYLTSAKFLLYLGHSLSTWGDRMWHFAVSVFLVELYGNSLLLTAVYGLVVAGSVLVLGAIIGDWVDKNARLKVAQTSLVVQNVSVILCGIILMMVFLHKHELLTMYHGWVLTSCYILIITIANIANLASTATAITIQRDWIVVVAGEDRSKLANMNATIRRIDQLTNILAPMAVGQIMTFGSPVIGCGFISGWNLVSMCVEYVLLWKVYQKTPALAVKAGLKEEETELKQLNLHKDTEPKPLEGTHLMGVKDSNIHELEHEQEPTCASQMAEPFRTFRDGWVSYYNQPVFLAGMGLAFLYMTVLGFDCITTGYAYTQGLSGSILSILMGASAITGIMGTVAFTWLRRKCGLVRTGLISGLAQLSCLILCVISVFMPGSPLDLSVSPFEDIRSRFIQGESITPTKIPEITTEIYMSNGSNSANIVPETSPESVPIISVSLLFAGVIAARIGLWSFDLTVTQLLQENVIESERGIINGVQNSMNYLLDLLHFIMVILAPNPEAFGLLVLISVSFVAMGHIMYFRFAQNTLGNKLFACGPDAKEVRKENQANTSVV

T2: human ferroportin (SLC40A1) fused in frame with GFP, stably expressed in HEK293 cells (human, UniProt Q9NP59 1-571)
T2 sequence (looked up): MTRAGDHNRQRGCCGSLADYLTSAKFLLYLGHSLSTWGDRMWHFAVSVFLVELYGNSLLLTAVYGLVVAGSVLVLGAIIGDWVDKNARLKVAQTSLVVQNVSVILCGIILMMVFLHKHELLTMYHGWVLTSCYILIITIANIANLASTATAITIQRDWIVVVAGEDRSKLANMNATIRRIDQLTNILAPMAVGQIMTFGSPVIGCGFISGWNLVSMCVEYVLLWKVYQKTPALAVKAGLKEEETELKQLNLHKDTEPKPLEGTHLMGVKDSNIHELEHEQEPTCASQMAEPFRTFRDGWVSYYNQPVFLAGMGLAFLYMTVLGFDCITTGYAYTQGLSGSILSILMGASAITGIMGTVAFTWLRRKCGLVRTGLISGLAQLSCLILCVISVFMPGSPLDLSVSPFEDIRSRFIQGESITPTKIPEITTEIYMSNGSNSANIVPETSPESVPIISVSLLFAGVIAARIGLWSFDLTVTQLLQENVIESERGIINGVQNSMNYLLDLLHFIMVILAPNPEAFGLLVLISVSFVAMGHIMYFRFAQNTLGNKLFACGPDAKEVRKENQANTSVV


target: T1, human ferroportin (SLC40A1) fused in …; assay: cell-based or functional assay

Binder	Potency EC50	Potency EC50 (nM)
Isovaleryl-DTHFPICIFGPRSKGWVC-NH2 (not fully specified (bridges); cysteine pairing not given here) [Compound 2]	5 nM	–
[Ida]TH[Dip][β3hP]ICIFGPRSKGWVCM-NH2 (disulfide 7-18 (inferred)) [Compound 5]	17 nM	–
Isovaleryl-DTHFPCIIFGPRSKGWVCK-NH2 (not fully specified (bridges); cysteine pairing not given here) [Compound 11]	9 nM	–
H-DTHFPICIFGPRAKGWVCM-NH2 (cysteine pairing not given here) [Compound 16]	88 nM	–
H-DTHFPICIFGPRSKGWVCM-NH2 (not fully specified (bridges); cysteine pairing not given here) [Compound 18]	125 nM	–
H-DTHFPCIIFGPRSKGWVCM-NH2 (cysteine pairing not given here) [Compound 21]	46 nM	–
H-DTHFPICIFAPRSKGWVCM-NH2 (cysteine pairing not given here) [Compound 22]	9430 nM	–
H-DTHFAICIFGPRSKGWVCM-NH2 (cysteine pairing not given here) [Compound 26]	147 nM	–
H-DTHFPICIFGPHRSKGWVCM-NH2 (cysteine pairing not given here) [Compound 27]	149 nM	–
H-DTHFPICIFGPRAKGWVCM-NH2 (cysteine pairing not given here) [Compound 28]	88 nM	–
H-DTHFPICIFGPRSKAWVCM-NH2 (cysteine pairing not given here) [Compound 31]	175 nM	–
H-ATHFPICIFGPRSKGWVCM-NH2 (cysteine pairing not given here) [Compound 33]	184 nM	–
H-DTHFPICIFGPASKGWVCM-NH2 (cysteine pairing not given here) [Compound 34]	206 nM	–
H-DTHAPICIFGPRSKGWVCM-NH2 (cysteine pairing not given here) [Compound 38]	254 nM	–
H-DTHFPICIFGPRSKGWACM-NH2 (cysteine pairing not given here) [Compound 47]	313 nM	–
H-DTHFPCIAF-NH2 [Compound 51]	382 nM	–
H-DAHFPCIIF-NH2 [Compound 52]	388 nM	–
H-DTHFPCIIFK-NH2 [Compound 55]	419 nM	–
H-DTHFPCIFF-NH2 [Compound 56]	441 nM	–
H-DTAFPICIFGPRSKGWVCM-NH2 (cysteine pairing not given here) [Compound 60]	498 nM	–
H-DTHFPICIFGPRSKGAVCM-NH2 (cysteine pairing not given here) [Compound 66]	520 nM	–
H-DTHFPICIAGPRSKGWVCM-NH2 (cysteine pairing not given here) [Compound 67]	2470 nM	–
H-DTHFPICAFGPRSKGWVCM-NH2 (cysteine pairing not given here) [Compound 68]	–	> 10000 nM

target: T2, human ferroportin (SLC40A1) fused in …; assay: cell-based or functional assay

Binder	Potency EC50
Isovaleryl-DTHFPCIKFEPK([γGlu-Palmitoyl])SKGCK-NH2 (not fully specified (bridges); cysteine pairing not given here) [Compound 220]	5 nM
Isovaleryl-DTHFPCIKFEPRSKK([γGlu-Palmitoyl])CK-NH2 (not fully specified (bridges); cysteine pairing not given here) [Compound 222]	4 nM
DTHFPCIKFEPRSKGCKK (not fully specified; N-terminal isovaleric acid; K18(isoglu-Palm); C-terminal NH2) [Compound 224]	4 nM
Isovaleryl-DTHFPCIK([dapa-Palmitoyl])FEPRSKGCK-NH2 (not fully specified (bridges); cysteine pairing not given here; reading uncertain) [Compound 225]	17 nM
Isovaleryl-DTHFPCIKFEPK([dapa-Palmitoyl])SKGCK-NH2 (not fully specified (bridges); cysteine pairing not given here; reading uncertain) [Compound 227]	10 nM
Isovaleryl-DTHFPCIKFEPRSK([dapa-Palmitoyl])GCK-NH2 (not fully specified (bridges); cysteine pairing not given here; reading uncertain) [Compound 228]	7 nM
Isovaleryl-DTHFPCIKFEPRSKGCK([dapa-Palmitoyl])K-NH2 (not fully specified (bridges); cysteine pairing not given here; reading uncertain) [Compound 230]	10 nM
Isovaleryl-ATHFPCIKFGPRSKGWVCK-NH2 (not fully specified (bridges); cysteine pairing not given here) [Compound 234]	60 nM
Isovaleryl-DTHAPCIKFGPRSKGWVCK-NH2 (not fully specified (bridges); cysteine pairing not given here) [Compound 236]	> 500 nM
Isovaleryl-DTHFPCIKAGPRSKGWVCK-NH2 (not fully specified (bridges); cysteine pairing not given here) [Compound 237]	50 nM
